Laboratory results published in patent US20230357427A1 (SHANGHAI IMMUNOHEAD BIOTECHNOLOGY, published 2023).
Residue numbers refer to the chain shown, from its start. Blank lines part the entries; values can stand above or below the binder they belong to.

Key:
[1] = biological target: T1, EpCAM on human tumor cells (SW480, HCT116, HCT116-Luc, KATO-III, A549) (human, UniProt P16422 24-314); assay: flow cytometry on SW480 cells
T1 construct: whole, on cells; also called epithelial cell adhesion molecule
T1 sequence (looked up): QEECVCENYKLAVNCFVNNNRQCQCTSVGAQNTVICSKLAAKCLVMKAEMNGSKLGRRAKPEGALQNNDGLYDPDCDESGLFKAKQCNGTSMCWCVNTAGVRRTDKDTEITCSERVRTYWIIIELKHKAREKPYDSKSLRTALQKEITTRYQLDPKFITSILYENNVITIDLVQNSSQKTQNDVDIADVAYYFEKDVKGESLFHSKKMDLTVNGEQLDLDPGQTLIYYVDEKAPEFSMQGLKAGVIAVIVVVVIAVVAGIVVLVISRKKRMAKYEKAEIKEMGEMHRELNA
Source text: (§1) The EC50 values of each recombinant antibody on SW480 and HCT116 are shown in Table 3, which are derived from FIGS. 1-4.

[2] = biological target: T1, EpCAM on human tumor cells (SW480, …); assay: flow cytometry on HCT116 cells
Source text: as §1

B2: H2L1 (antibody, V domains shown)
VH: QVQLVQSGAEVKKPGASVKVSCKASGYTFTNYWINWVRQAPGQGLEWIGNIYPSYIYTNYNQEFKDKVTLTVDESTSTAYMELSSLRSEDTAVYYCTRSPYGYDEYGLDYWGQGTTVTVSS
VL: DIQLTQSPSSLSASVGDRVTMTCKSSQSLLNSRNQKNYLTWYQQKPGKAPKLLIYWASTRESGVPSRFSGSGSGTDFTLTISSVQPEDFATYYCQNDYVYPLTFGQGTKLEIK
notes: Recombinant antibody from ExpiCHO-s; the limits were counted from the printed signal peptide, linker and hinge
EC50 [1]: 0.599 µg/mL | EC50 [2]: 0.583 µg/mL

B3: H2L3 (antibody, V domains shown)
VH: B2 VH
VL: DIVLTQSPDSLAVSLGERATMNCKSSQSLLNSRNQKNYLTWYQQKPGQPPKLLIYWASTRESGVPDRFSGSGSGTDFTLTISSLQAEDVAVYYCQNDYVYPLTFGQGTKLEIK
notes: as for B2
EC50 [1]: 0.653 µg/mL | EC50 [2]: 0.584 µg/mL

B4: H2L4 (antibody, V domains shown)
VH: B2 VH
VL: EIVLTQSPATLSLSPGERATMSCKSSQSLLNSRNQKNYLTWYQQKPGQAPRLLIYWASTRESGIPARFSGSGSGTDFTLTISSLEPEDFAVYYCQNDYVYPLTFGQGTKLEIK
notes: as for B2
EC50 [1]: 0.655 µg/mL | EC50 [2]: 0.584 µg/mL

B6: H1L4 (antibody, V domains shown)
VH: B2 VH with V20L, R38K
VL: B4 VL
notes: as for B2
EC50 [1]: 0.675 µg/mL | EC50 [2]: 0.602 µg/mL

B9: H3L1 (antibody, V domains shown)
VH: B2 VH with K67R, V72R, E74T, T76I, S85R, E89D
VL: B2 VL
notes: as for B2
EC50 [1]: 0.564 µg/mL | EC50 [2]: 0.478 µg/mL

B10: H1L1 (antibody, V domains shown)
VH: B2 VH with V20L, R38K
VL: B2 VL
notes: Recombinant antibody from ExpiCHO-s; These limits were counted from the printed signal peptide, linker and hinge
EC50 [1]: 0.567 µg/mL | EC50 [2]: 0.503 µg/mL

B11: H3L2 (antibody, V domains shown)
VH: B2 VH with K67R, V72R, E74T, T76I, S85R, E89D
VL: B2 VL with S32T, V84L
notes: as for B2
EC50 [1]: 0.569 µg/mL | EC50 [2]: 0.472 µg/mL

B12: H1L3 (antibody, V domains shown)
VH: B2 VH with V20L, R38K
VL: B3 VL
notes: as for B2
EC50 [1]: 0.631 µg/mL | EC50 [2]: 0.563 µg/mL

B13: H2L2 (antibody, V domains shown)
VH: B2 VH
VL: B2 VL with S32T, V84L
notes: as for B2
EC50 [1]: 0.595 µg/mL | EC50 [2]: 0.537 µg/mL

The remaining lines, values ahead:

EC50 [1]: 0.581 µg/mL | EC50 [2]: 0.468 µg/mL
B1: mHmL (antibody, V domains shown)
VH: QVKLQQSGAELVRPGASVKLSCKASGYTFTNYWINWVKQRPGQGLEWIGNIYPSYIYTNYNQEFKDKVTLTVDESSSTAYMQLSSPTSEDSAVYYCTRSPYGYDEYGLDYWGQGTTVTVSS
VL: DIELTQSPSSLTVTAGEKVTMNCKSSQSLLNSRNQKNYLTWYQQKPGQPPKLLIYWASTRESGVPDRFTGSGSGTDFTLTISSVQAEDLAVYYCQNDYVYPLTFGAGTKLEIK
notes: it was captured on Protein A; also called original antibody mHmL; EpCAM antibody

EC50 [1]: 0.568 µg/mL | EC50 [2]: 0.474 µg/mL
B5: H4L1 (antibody, V domains shown)
VH: B2 VH with N61A, E63K, K65Q, D66G, K67R, V72R, E74T, A79V
VL: B2 VL
notes: as for B2

EC50 [1]: 0.449 µg/mL | EC50 [2]: 0.426 µg/mL
B7: H5L1 (antibody, V domains shown)
VH: B2 VH with K67R, L70M, V72R, E74T, T76I, S85R, E89D
VL: B2 VL
notes: as for B2

EC50 [1]: 0.542 µg/mL | EC50 [2]: 0.492 µg/mL
B8: H3L3 (antibody, V domains shown)
VH: B2 VH with K67R, V72R, E74T, T76I, S85R, E89D
VL: B3 VL
notes: as for B2
